Assay results from the DeepSol protein solubility set.

Assay: soluble on expression in E. coli; label from the status in PepcDB or PDB records

Sequence | soluble on expression in E. coli
MAHHHHHHMDAAWEAHIRLDPATDAAMRSNSGSRANSGGAGTPPVTLAPPEHPFNVMSFNTASAGCSIAHCGFLRGREEDFLREVVQRLQPSSSPSAARHLLYVITSANDVYVVDVKTEVVFLHWAGGASTSGCSSSSSEASASPLGAQFIVTQAETYGALMYLTVARRSSVKTATEQAASRGCHLFSGGGGPERNVYQRCNDPAVYVLHLGCTKPLAASTTKAFIAGGGAYVIQAVSKDKPHPTSKHSRSNAASATASAGALSIRAPSVGASAATAAERIGSAGVCRRRRRWGGDPEEGAADLLRCQRTPRPQPVIDAQFVPSAAVLVPCHGAGHSSSSCKWICRNVQILLVTPTRQQLLCTAGRRRNGRREQRGPL | not soluble
MPQDPRHPEHQYLDLVKHILENGARRMDRTGTGTLSVFGATMRFSLEDNTFPLLTTRRVFYRGVVEELLFFLRGETDSKVLEKKGVRIWEKNGAKQFLQSVGIDREEGDLGPIYGFQWRHFGARYETSASSYEGKGVDQIASAIAAIRANPASRRIVVSAWNPTDLGSMALPPCHVLFQFNVTDGKLSCAMYQRSGDMGLGVPFNIASYSLLTILVAHLTGLQPGEFVHFLGDAHVYLDHVDSLRQQIQRPPRAFPKLFVSPKGPRTEPEHFQYEDFELVGYDPHPAIKMNMSA | soluble
CEGGVDMQQSQVQLQCPLTPPRGLQVSIQGEAVAVRPGEDVLFVVRQEQGDVLTTKYQVDLGDGFKAMYVNLTLTGEPIRHRYESPGIYRVSVRAENTAGHDEAVLFVQV | soluble
MSDQIADARLVPLGAILTRMSTVVDMPETRGHLISAITTASDPGEILYLSSRADFSEGGSIRGGVPIIAPWFAKNLGHDELQHGWARRVEWETIPTNGGIDARTSHDDWDLRLGTQVLPHGFAMMLKARNASPLRRDFQSAFHPYFRVADVRTTTVTVGDQEFRFDGTAVDQAVPLPEWTPLVIKDSQRTITVTYQGADHAVVWNPGSELAAQMTDVGEGEWTEFVCVEPALLGDHAQGISVPPWDWVEIGMTVKVTPAQ | not soluble
GPGSMTELVPPEAIRFANGEPLCAYHECYRCFDGRDILFRLVNVEKKQWFFYNDTADTIAHVRAVFYPGSVIRPLQRADMHVIPGPTGVADETCSIEVTLDIQPGFTESFIEGEHKGFHLEFRTETAPTKEVVFEYRRPMVPYDKIYRCFKNGNGLLFRLVDERVRQWFFYNDTRDLMMKVSVTFANSAEVRPLGCTALGAPHADTAPESVVYTLLIAPGCTEPFIEGNPVTYTLEFAAEPVDAPVTPVLEEPVQYLHGSPDVAVIPHQTHVFKCFKEHGNGLLFRVVDDVNTIWAFYNDTPDYVMTANMRYPSTSDIRLAPGVQVIADSEREGGFVAAVEVLPLATVPFLVGSPEQYELAFAATPVAPLTPSPTTSPEPSSPPQLADAADAAATVPPALPVPEEAPVYCNSGPDLTVMPNIDEVYKCFKDYGNGLVFRLVDKVQRRWAFYNDTTDIVALVRVQFSPGAHIQPLGHTVLGCDLESGSVLHELRVNPLETALFVEGDVDIFTTKFVAEEIQT | soluble
MDPYQQGGRGGGFPARGGRGGGHGGGYPQEGYGAAAGGYGGYDPYNPYGAAGGYGMYPGQGYPPQEMTSPLDAEIQAVLREIHLEVTGLETSGDQFRNARRLLNSEKERLENNIDPEWLEVDVAKPVKVCKKILVPIYRHPNFNFIGKVLGPKGATLQTLCKTHKCHIYILGRGSTKDREKEAELLASGDPQHAHFSGPLHVKVETVAPAYIAYGRVAAVIEELSRILQPIHEDTTPAHLKNGSGDGEEKEDEEKKEGGEGGGRGGRGGRGGFRGGFRGGRGGFGGPGGPMGGRGGMGGMGGRGRGGQAAGFRPY | not soluble
GSHMKVLLLGFEFLPVKVGGLAEALTAISEALASLGHEVLVFTPSHGRFQGEEIGKIRVFGEEVQVKVSYEERGNLRIYRIGGGLLDSEDVYGPGWDGLIRKAVTFGRASVLLLNDLLREEPLPDVVHFHDWHTVFAGALIKKYFKIPAVFTIHRLNKSKLPAFYFHEAGLSELAPYPDIDPEHTGGYIADIVTTVSRGYLIDEWGFFRNFEGKITYVFNGIDCSFWNESYLTGSRDERKKSLLSKFGMDEGVTFMFIGRFDRGQKGVDVLLKAIEILSSKKEFQEMRFIIIGKGDPELEGWARSLEEKHGNVKVITEMLSREFVRELYGSVDFVIIPSYFEPFGLVALEAMCLGAIPIASAVGGLRDIITNETGILVKAGDPGELANAILKALELSRSDLSKFRENCKKRAMSFSWEKSAERYVKAYTGSIDRAFDFIL | soluble
MEGLKLSEAELMIFIHPSQSRNVFQGICRELSSLLFQYNETFDGVLLAYDATVKSKQAKILTGLHPYFGVRVNTRLLLFDPKPKSFVEGKIVKISPESIHVIVLGFSAAVITDVDIREEFKYRVRDGEGSFVSRSHKRHALKLGTMLRLQVQSFDEEVMHIAGSLLPENTGCVKWLEKKSEEALPTDRDHKRRKLA | not soluble
MDSALFKTIALIGKHKNPDIVIPLLSLAEYLTDRGISVVLDSLTAAHISNSRYPILTLEEIGKQADLAIVLGGDGTMLNIARALVPFSVPLIGINQGRLGFLTDLTADTMHETLNDMLAGQFVVENRMLLTVEVTRNGESVFKELAFNDVVLHRGISSGMIELEVHINGEYVYSLRSDGLIIATPTGSTAYALSSGGPILHPGLNLMTLVPICPHTLSNRPIVIGADATIEIKVHFTTEIKIYTDSHSWFDLSEHDRVFIQRCPETIKLLHPVHHSYYRMLREKLGWSGILQKNSRLEHHHHHH | not soluble
MARDRNLFKMLVNRLLDRLARLPVGAELGSEGELAAELQASRTTVRAVLTHLAEAGLLSWEGRRKVVLRAPSPSDRFDEGETRPRQELVEEPFLAWVLQGDLPPGTLLHESDLARRLGVPVATVREFLIRFEPFGLIEKQPNRHWVLKGFTRAFAEEMFAVREMFERHALRGLLAATAPGGPLRADLESLRAEHEALSAGPEEELTAFPALDARFHRLLCRAAHNRFILDFSRTISIIVHFHYRWNKRDELRRNRAALNEHLAIVEAVLAGDAPRAAAALDAHLATAYRTLMTSVTWADA | not soluble
SASVLKETAGLYETLKAEWNKKNPNLNKCGELLSKLKISLLELNFLPTTGTKLTKQQLILARDVLEIGALWSILKKDIPSFERYMAQLKCYYFDYKDELPESAYRHQLLGLNLLFLLSQNRVSEFHTELERLSAKDIQTNVYIRHPVSLEQYLMEGSYNKVFLAKGNIPAESYTFFIDTLLDTIRDEIAGCIEKAYEQIQFNEATRVLFFSSPKKMTDYAKKRNWTQSPDGYYSFSTQHQKTEEVTIPSTELAKQVIEYARQLEMIV | soluble
SLRLPTVFRQMRPVSRVLAPHLTRAYAKDVKFGADARALMLQGVDLLADAVAVTMGPKGRTVIIEQSWGSPKVTKDGVTVAKSIDLKDKYKNIGAKLVQDVANNTNEEAGDGTTTATVLARSIAKEGFEKISKGANPVEIRRGVMLAVDAVIAELKKQSKPVTTPEEIAQVATISANGDKEIGNIISDAMKKVGRKGVITVKDGKTLNDELEIIEGMKFDRGYISPYFINTSKGQKCEFQDAYVLLSEKKISSIQSIVPALEIANAHRKPLVIIAEDVDGEALSTLVLNRLKVGLQVVAVKAPGFGDNRKNQLKDMAIATGGAVFGEEGLTLNLEDVQPHDLGKVGEVIVTKDDAMLLKGKGDKAQIEKRIQEIIEQLDVTTSEYEKEKLNERLAKLSDGVAVLKVGGTSDVEVNEKKDRVTDALNATRAAVEEGIVLGGGCALLRCIPALDSLTPANEDQKIGIEIIKRTLKIPAMTIAKNAGVEGSLIVEKIMQSSSEVGYDAMAGDFVNMVEKGIIDPTKVVRTALLDAAGVASLLTTAEVVVTEIPKEEKDPGMGAMGGMGGGMGGGMF | soluble
MSLDDFCNIPKGKEVVFGFNVPQSGAYADEGMDELKAYQLAVKHLNGEGDGGMLKTMKPLALKGNGVLGKKVTFVSGDTQTKADQARATAKRMIEKDGAIMITGGSSSAEAVAVQSLCQDVGVIFMAGLTHSNDTTGKDKRAYGFRHFFNAYMSGVALGPVLAEAYGKDRAAYHLTADYTWGWTQEESMKDATEKQGWKTVKAVRTPLGAADFSQYITPVLNSGADVLILNHYGKDMINSLTQAVQFGLRDKMANGKKFEIVVPLFSELMAQGAGDAIKGIYGTANWDWKLEDAATSAFTKSFGAAYGTPPSQAAQTCYVQAILYADAVERAGTFNPSKVIAALEGFEFDGLGNGKTLYRAADHQCFKDVLVVQGKEKPKEGHHHHHH | not soluble
MAFAGLTDLRLFDNVSHYINELAGEFSPDTAHLHDHNCKCSIVDRLWCDYFGMGTCISREARARRKERKRNIKRLREARNASASPRDPFSNGHRYGHRSRSEGGNGDVRDDIKELIIETLEVIRTLVNNEQEPPQSLLKLNFIADEEKGWTMVVRALIYTIPENDPLGPAVISLFLDECPLPSRESVQTLLLSLGLSSEFVDSKHLPPSWHKNMCIVLGSLAEKMAGSAAVTMFNDKIKGYLMKIICYGLTYFPPNYGKTLKEKNTHCVRMFALLALEKFAQTRENQISICKMFTEMTTHPLIKMEEYLKNEEVSRYWFAKQEGFCAQWALDNIFILESRPYSYETCETSKINAMLNHEDVSEYLKIGPDGLEARCDVSSFESVRCTFEVMDGVWYYEATVLTSGVMQIGLATKRSRFLNHEGYGIGDDASSVAYDGCRQLVWYNAKSHKHEHENWQPGDVIGVLLNIPEGEVVFYLNGTPLKEPETEFLSNRQPSEGVFAAASFMSFQQCRFNFGASRFKYNPGKKFRCFNDFGKLSTEQRTIVPRRLRLELLEKEHIPEDYCTICFAAPGSTTLLPCNHDGFCSDCCNMMDHCPLCRKPIEERIQKTKNNRSFDNVKSPSNSSISAFVRVNSQRKSTRATSAVATHPTDTVIHTGITTANNRDIARRHTQV | not soluble
MGNALVKKEPPPPVVLVPPLFDYPPLSARTRMLESSYNLLFGKLALRCLFEDYFEEANRFTGKFLLKPTDDPHVDLVASVSGAVDGRVEGDFVGNAEFRWQSDVDDPHTFVDLSVSTSNPVLLMRSSAYYPKYGIGAFAVYPLISKITGKSSEEYRIMGLRYGSTNLSVGATVTPFSANNELPKHAWLVSKMGSLTVGVQYEPLHGSKDLAKYTDPRNWSCAAGYGVGSQSPLTPSFNIGIELARSSQFIASFYQHVVVQRRVQNPFEENQVVGITNYIDFGFELQSRVDDSKTPPNAPDSLLQVAASWQANKNFLLKGKVGAHSSTLSLAFKSWWKPSFAFNISATTNHRTGNVQCGFGLRVDNLREASYQRADPNFVMLTPNKEHLAEGIVWKMGKRPMYQADVDAENFSELPKELRPSQKIL | soluble
MAHHHHHHMASEEPLNEIPGECPTPGDLGHAGWDVLHTAGAVYPYKPSPLQQEAFRSFLYSWSHVYACSHCSYHMRRYLKRNPPVVTDKLALNRYLCEFHNTVNKNIAKPVYNCDPMVVLRRWHPTFPDMEDQPTIEEQIAEQRRLEQAEAQKQKEKELQQKQVQTSSLGDMKASRERLVGRWRSEKSESHEYANNNPSSVGAFATGWSASSRQHENAGDAAAKSAPAPLAESREKRWWIFGKNGSGDKNAGFSSTTGTPSKVNSSGGGSNSGGMNGSLDDDEASVMAILKRLKACMVYCPDKDEKSNSA | not soluble
GSMAGGVDGPIGIPFPDHSSDILSGLNEQRTQGLLCDVVILVEGREFPTHRSVLAACSQYFKKLFTSGAVVDQQNVYEIDFVSAEALTALMDFAYTATLTVSTANVGDILSAARLLEIPAVSHVCADLLDRQI | soluble
MGSDKIHHHHHHMAATLEAVPSTKTADKKTEISEADAARELVRMAKEQGLSLTGPDGLLKQLTKTVIETALDEEMTEHLGYEKHDSAGKQTANSRNGVRPKTVLTETTGPVEVDVPRDRAGTFEPVIVKKRQRRLTGVDEMVLSLYAKGLTTGEISAHFAEIYGASVSKETVSRITDRVLEEMAAWQNRPLDEVYAAIFIDAIVVKVRDGQVANRPIYAAIGVTLEGEKDILGLWAGTGGEGAKFWMSVLTDIKNRGVKDTFFLVCDGLKGLPEVVTNVWPLATVQTCIIHLIRNTFRLASRQDWDALKRDVKPIYTAPNAEAARTALEELAERWGRKYGAIVRLWENAWEELIPFLDYDVEIRRVICSTNAIESLNARYRRAVKARGHLPTEQAALKCLYLVTRSLDPTGAGKTRWAVRWKPALNAFAITFSDRFPAAESY | not soluble
